Key:
DR5-Fc = DR5-Fc (UniProt O14763); test: BLI; Octet; DR4-Fc or DR5-Fc immobilised on protein A-coated biosensors, inserted into solutions of TRAIL proteins at different concentrations (2.5-50 nM)
DR4-Fc = DR4-Fc (UniProt O00220); test: as above
UniProt O00220, sequence (O00220 24-239): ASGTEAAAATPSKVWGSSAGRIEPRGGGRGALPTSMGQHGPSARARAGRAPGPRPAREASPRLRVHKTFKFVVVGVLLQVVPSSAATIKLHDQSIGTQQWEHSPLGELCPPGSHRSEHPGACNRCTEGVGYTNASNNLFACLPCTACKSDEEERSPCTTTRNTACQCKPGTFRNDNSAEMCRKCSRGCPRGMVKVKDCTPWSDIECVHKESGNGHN

UniProt O14763, sequence (O14763 56-210): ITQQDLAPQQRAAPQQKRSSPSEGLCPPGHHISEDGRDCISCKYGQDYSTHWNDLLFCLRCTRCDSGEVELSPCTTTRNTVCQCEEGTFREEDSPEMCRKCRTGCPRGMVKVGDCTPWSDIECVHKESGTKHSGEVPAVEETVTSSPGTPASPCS

Kd (DR5-Fc): 0.46 nM
Kd (DR4-Fc): 1.1 nM
Substance: RGR-TRAIL (tumor-homing RGR peptide fused to the N-terminus of TRAIL) (ligand)
